# Numbered stars: 1 amine (or outer) side, 2 acyl side, 3 side chain; on linkers, the order of the positions; unused ones are H or OH. * marks the point of attachment. C18 diacid = O=C(O)CCCCCCCCCCCCCCCCC(=O)*; C16 diacid = O=C(O)CCCCCCCCCCCCCCC(=O)*; γGlu = O=C(O)[C@H](CCC(=O)[*:2])N[*:1]; C14 diacid = O=C(O)CCCCCCCCCCCCC(=O)*; C12 diacid = O=C(O)CCCCCCCCCCC(=O)*; Palmitoyl = CCCCCCCCCCCCCCCC(=O)*; AEEA = NCCOCCOCC(=O)O
# T1: human amylin receptor (human calcitonin receptor + human RAMP3) (human) (UniProt P30988)
# T1 sequence (looked up) 1: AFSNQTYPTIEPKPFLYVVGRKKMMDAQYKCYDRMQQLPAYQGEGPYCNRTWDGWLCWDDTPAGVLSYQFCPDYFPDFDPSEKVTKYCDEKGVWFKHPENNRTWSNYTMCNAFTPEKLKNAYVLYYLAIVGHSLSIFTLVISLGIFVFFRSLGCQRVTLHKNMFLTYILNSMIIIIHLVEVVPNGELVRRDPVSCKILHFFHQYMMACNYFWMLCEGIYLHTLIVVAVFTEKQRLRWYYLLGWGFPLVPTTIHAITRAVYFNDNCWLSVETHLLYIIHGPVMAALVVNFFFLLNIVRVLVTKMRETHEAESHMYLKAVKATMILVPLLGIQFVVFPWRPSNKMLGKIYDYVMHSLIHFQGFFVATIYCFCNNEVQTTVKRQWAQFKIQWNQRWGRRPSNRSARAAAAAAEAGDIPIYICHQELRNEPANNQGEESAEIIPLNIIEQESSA
# T1 sequence (looked up) 2: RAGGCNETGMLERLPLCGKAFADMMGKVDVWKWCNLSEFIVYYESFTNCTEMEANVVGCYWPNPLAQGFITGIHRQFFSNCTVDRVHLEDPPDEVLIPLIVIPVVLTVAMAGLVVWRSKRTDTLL
# B1: [N-terminal(C18 diacid)]mimylin (peptide)
# peptide: {C18 diacid}-EASELSTAALGRLSAELHELATLPRTETGPESP-NH2
# SMILES: CC(C)C[C@H](NC(=O)[C@H](C)NC(=O)[C@H](C)NC(=O)[C@@H](NC(=O)[C@H](CO)NC(=O)[C@H](CC(C)C)NC(=O)[C@H](CCC(=O)O)NC(=O)[C@H](CO)NC(=O)[C@H](C)NC(=O)[C@H](CCC(=O)O)NC(=O)CCCCCCCCCCCCCCCCC(=O)O)[C@@H](C)O)C(=O)NCC(=O)N[C@@H](CCCNC(=N)N)C(=O)N[C@@H](CC(C)C)C(=O)N[C@@H](CO)C(=O)N[C@@H](C)C(=O)N[C@@H](CCC(=O)O)C(=O)N[C@@H](CC(C)C)C(=O)N[C@@H](Cc1c[nH]cn1)C(=O)N[C@@H](CCC(=O)O)C(=O)N[C@@H](CC(C)C)C(=O)N[C@@H](C)C(=O)N[C@H](C(=O)N[C@@H](CC(C)C)C(=O)N1CCC[C@H]1C(=O)N[C@@H](CCCNC(=N)N)C(=O)N[C@H](C(=O)N[C@@H](CCC(=O)O)C(=O)N[C@H](C(=O)NCC(=O)N1CCC[C@H]1C(=O)N[C@@H](CCC(=O)O)C(=O)N[C@@H](CO)C(=O)N1CCC[C@H]1C(N)=O)[C@@H](C)O)[C@@H](C)O)[C@@H](C)O
# B2: [N-terminal(C18 diacid), 17I]mimylin (peptide)
# peptide: {C18 diacid}-EASELSTAALGRLSAEIHELATLPRTETGPESP-NH2
# SMILES: CC[C@H](C)[C@H](NC(=O)[C@H](CCC(=O)O)NC(=O)[C@H](C)NC(=O)[C@H](CO)NC(=O)[C@H](CC(C)C)NC(=O)[C@H](CCCNC(=N)N)NC(=O)CNC(=O)[C@H](CC(C)C)NC(=O)[C@H](C)NC(=O)[C@H](C)NC(=O)[C@@H](NC(=O)[C@H](CO)NC(=O)[C@H](CC(C)C)NC(=O)[C@H](CCC(=O)O)NC(=O)[C@H](CO)NC(=O)[C@H](C)NC(=O)[C@H](CCC(=O)O)NC(=O)CCCCCCCCCCCCCCCCC(=O)O)[C@@H](C)O)C(=O)N[C@@H](Cc1c[nH]cn1)C(=O)N[C@@H](CCC(=O)O)C(=O)N[C@@H](CC(C)C)C(=O)N[C@@H](C)C(=O)N[C@H](C(=O)N[C@@H](CC(C)C)C(=O)N1CCC[C@H]1C(=O)N[C@@H](CCCNC(=N)N)C(=O)N[C@H](C(=O)N[C@@H](CCC(=O)O)C(=O)N[C@H](C(=O)NCC(=O)N1CCC[C@H]1C(=O)N[C@@H](CCC(=O)O)C(=O)N[C@@H](CO)C(=O)N1CCC[C@H]1C(N)=O)[C@@H](C)O)[C@@H](C)O)[C@@H](C)O
# B3: [N-terminal(C18 diacid), 5I]mimylin (peptide)
# peptide: {C18 diacid}-EASEISTAALGRLSAELHELATLPRTETGPESP-NH2
# SMILES: CC[C@H](C)[C@H](NC(=O)[C@H](CCC(=O)O)NC(=O)[C@H](CO)NC(=O)[C@H](C)NC(=O)[C@H](CCC(=O)O)NC(=O)CCCCCCCCCCCCCCCCC(=O)O)C(=O)N[C@@H](CO)C(=O)N[C@H](C(=O)N[C@@H](C)C(=O)N[C@@H](C)C(=O)N[C@@H](CC(C)C)C(=O)NCC(=O)N[C@@H](CCCNC(=N)N)C(=O)N[C@@H](CC(C)C)C(=O)N[C@@H](CO)C(=O)N[C@@H](C)C(=O)N[C@@H](CCC(=O)O)C(=O)N[C@@H](CC(C)C)C(=O)N[C@@H](Cc1c[nH]cn1)C(=O)N[C@@H](CCC(=O)O)C(=O)N[C@@H](CC(C)C)C(=O)N[C@@H](C)C(=O)N[C@H](C(=O)N[C@@H](CC(C)C)C(=O)N1CCC[C@H]1C(=O)N[C@@H](CCCNC(=N)N)C(=O)N[C@H](C(=O)N[C@@H](CCC(=O)O)C(=O)N[C@H](C(=O)NCC(=O)N1CCC[C@H]1C(=O)N[C@@H](CCC(=O)O)C(=O)N[C@@H](CO)C(=O)N1CCC[C@H]1C(N)=O)[C@@H](C)O)[C@@H](C)O)[C@@H](C)O)[C@@H](C)O
# B4: [N-terminal(C18 diacid), 9I]mimylin (peptide)
# peptide: {C18 diacid}-EASELSTAILGRLSAELHELATLPRTETGPESP-NH2
# SMILES: CC[C@H](C)[C@H](NC(=O)[C@H](C)NC(=O)[C@@H](NC(=O)[C@H](CO)NC(=O)[C@H](CC(C)C)NC(=O)[C@H](CCC(=O)O)NC(=O)[C@H](CO)NC(=O)[C@H](C)NC(=O)[C@H](CCC(=O)O)NC(=O)CCCCCCCCCCCCCCCCC(=O)O)[C@@H](C)O)C(=O)N[C@@H](CC(C)C)C(=O)NCC(=O)N[C@@H](CCCNC(=N)N)C(=O)N[C@@H](CC(C)C)C(=O)N[C@@H](CO)C(=O)N[C@@H](C)C(=O)N[C@@H](CCC(=O)O)C(=O)N[C@@H](CC(C)C)C(=O)N[C@@H](Cc1c[nH]cn1)C(=O)N[C@@H](CCC(=O)O)C(=O)N[C@@H](CC(C)C)C(=O)N[C@@H](C)C(=O)N[C@H](C(=O)N[C@@H](CC(C)C)C(=O)N1CCC[C@H]1C(=O)N[C@@H](CCCNC(=N)N)C(=O)N[C@H](C(=O)N[C@@H](CCC(=O)O)C(=O)N[C@H](C(=O)NCC(=O)N1CCC[C@H]1C(=O)N[C@@H](CCC(=O)O)C(=O)N[C@@H](CO)C(=O)N1CCC[C@H]1C(N)=O)[C@@H](C)O)[C@@H](C)O)[C@@H](C)O
# B5: [N-terminal(C18 diacid), 9V]mimylin (peptide)
# peptide: {C18 diacid}-EASELSTAVLGRLSAELHELATLPRTETGPESP-NH2
# SMILES: CC(C)C[C@H](NC(=O)[C@H](CCC(=O)O)NC(=O)[C@H](Cc1c[nH]cn1)NC(=O)[C@H](CC(C)C)NC(=O)[C@H](CCC(=O)O)NC(=O)[C@H](C)NC(=O)[C@H](CO)NC(=O)[C@H](CC(C)C)NC(=O)[C@H](CCCNC(=N)N)NC(=O)CNC(=O)[C@H](CC(C)C)NC(=O)[C@@H](NC(=O)[C@H](C)NC(=O)[C@@H](NC(=O)[C@H](CO)NC(=O)[C@H](CC(C)C)NC(=O)[C@H](CCC(=O)O)NC(=O)[C@H](CO)NC(=O)[C@H](C)NC(=O)[C@H](CCC(=O)O)NC(=O)CCCCCCCCCCCCCCCCC(=O)O)[C@@H](C)O)C(C)C)C(=O)N[C@@H](C)C(=O)N[C@H](C(=O)N[C@@H](CC(C)C)C(=O)N1CCC[C@H]1C(=O)N[C@@H](CCCNC(=N)N)C(=O)N[C@H](C(=O)N[C@@H](CCC(=O)O)C(=O)N[C@H](C(=O)NCC(=O)N1CCC[C@H]1C(=O)N[C@@H](CCC(=O)O)C(=O)N[C@@H](CO)C(=O)N1CCC[C@H]1C(N)=O)[C@@H](C)O)[C@@H](C)O)[C@@H](C)O
# Biological target: T1, human amylin receptor (human calcitonin receptor + human RAMP3) (human)
# Test: whole-cell competition vs 125I-rat amylin (Assay Va)
row,IC50,Binder
1,0.902 nM,B1
2,1.48 nM,B2
3,0.429 nM,B3
4,0.435 nM,Palmitoyl-EASELSTAALGRLSAELHELATLPRTETGPESP-NH2 [[N-terminal(C16)]mimylin]
5,0.498 nM,{C16 diacid}-EASELSTAALGRLSAELHELATLPRTETGPESP-NH2 [[N-terminal(C16 diacid)]mimylin]
6,1.19 nM,{C14 diacid}-EASELSTAALGRLSAELHELATLPRTETGPESP-NH2 [[N-terminal(C14 diacid)]mimylin]
7,8.38 nM,{C14 diacid-γGlu-γGlu-AEEA-AEEA-AEEA-AEEA}-EASELSTAALGRLSAELHELATLPRTETGPESP-NH2 [[N-terminal(C14 diacid-2xgGlu-4xOEG)]mimylin]
8,0.417 nM,B4
9,0.796 nM,B5
10,8.97 nM,{C12 diacid}-EASELSTAALGRLSAELHELATLPRTETGPESP-NH2 [[N-terminal(C12 diacid)]mimylin]
